Reference: patent US20210122788A1 (SANFORD BURNHAM PREBYS MEDICAL DISCOVERY INSTITUTE, published 2021)

Molecular target: T1, human HVEM Fc (human, UniProt Q92956 39-202)
T1 construct: also called wild-type HVEM-Fc; not shown: human IgG1 Fc
T1 sequence: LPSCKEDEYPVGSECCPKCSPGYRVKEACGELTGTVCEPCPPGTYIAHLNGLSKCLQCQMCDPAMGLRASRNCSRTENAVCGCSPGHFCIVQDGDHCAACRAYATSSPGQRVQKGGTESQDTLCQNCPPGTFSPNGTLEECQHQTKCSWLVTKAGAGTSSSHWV
Assay: flow cytometry on EL4 cells expressing human CD160

B1: human CD160 on cells (receptor)
chain: GCINITSSASQEGTRLNLICTVWHKKEEAEGFVVFLCKDRSGDCSPETSLKQLRLKRDPGIDGVGEISSQLMFTISQVTPLHSGTYQCCARSQKSGIRLQGHFFSILFTETGNYTVTGLKQRQHLEFSHNEGTLS
notes: whole, on cells; Transduced into EL4 or 293T cells; endogenous on NK92 and blood NK cells in the functional rows
binding result: binds
